Results published in patent US20240392024A1 (SHANGHAI CELGEN BIO PHARMACEUTICAL, published 2024).
Where “and” joins values, the source holds several entries; their conditions need not be identical. Identical values can stand only once.

Columns and labels:
[1] = biological target: T1, TNFR2-His (Sino Biological, 10417-H08H, NP_001057.1 Met1-Asp257, with multi-histidine tag expressed on … (human, UniProt P20333 23-257)); assay: ELISA, coated TNFR2-His
T1 construct: range 1-257; Bought protein; also called recombinant human TNFR2 protein; TNFR2-His antigen; not shown: C-terminal multi-histidine tag
T1 sequence (looked up): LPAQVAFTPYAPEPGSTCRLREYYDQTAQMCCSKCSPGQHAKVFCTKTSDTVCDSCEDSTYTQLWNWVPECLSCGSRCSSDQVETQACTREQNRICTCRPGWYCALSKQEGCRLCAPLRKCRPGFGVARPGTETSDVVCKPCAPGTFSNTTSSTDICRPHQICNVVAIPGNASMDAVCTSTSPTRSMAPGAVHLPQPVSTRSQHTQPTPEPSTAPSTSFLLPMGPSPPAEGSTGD
Procedure, shortened: (§1)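 EC50 was obtained from a dilution series in an ELISA format. Blocked plates carried recombinant human TNFR2 with a C-terminal His tag, and serially diluted antibodies were incubated on them. An enzyme-labelled anti-IgG secondary antibody followed. Plates were then developed with TMB and read on a microplate reader.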

[2] = biological target: T1, TNFR2-His (Sino Biological, 10417-H08H, …); assay: ELISA, plate coated with TNFR2-His
Protocol: To determine whether the human-mouse chimeric TNFR2 monoclonal antibody of the present invention can bind to recombinant human TNFR2 protein, in vitro ELISA test was conducted. Similar to the method described above, The plate was coated with TNFR2-His (Sino Biological, 10417-H08H, Assessment #NP_001057.1.Met1-Asp257, with multi-histidine tag expressed on C-terminus) antigens, and blocked with BSA, then added with gradient diluted human-mouse chimeric TNFR2 monoclonal antibodies for incubation. Then, secondary antibody Ap-anit-human IgG Fc (JacksonImmuno Research, 109-055-098) was added for incubation After TMB development, ELISA reading was performed.

[3] = biological target: T2, human TNFR2 on the cell membrane (human, UniProt P20333 23-461); assay: flow cytometry on Jurkat-TNFR2 cells
T2 construct: whole, on cells; One molecule for all cell formats; also called TNFR2-CHO cells; CHO-TNFR2
T2 sequence (looked up): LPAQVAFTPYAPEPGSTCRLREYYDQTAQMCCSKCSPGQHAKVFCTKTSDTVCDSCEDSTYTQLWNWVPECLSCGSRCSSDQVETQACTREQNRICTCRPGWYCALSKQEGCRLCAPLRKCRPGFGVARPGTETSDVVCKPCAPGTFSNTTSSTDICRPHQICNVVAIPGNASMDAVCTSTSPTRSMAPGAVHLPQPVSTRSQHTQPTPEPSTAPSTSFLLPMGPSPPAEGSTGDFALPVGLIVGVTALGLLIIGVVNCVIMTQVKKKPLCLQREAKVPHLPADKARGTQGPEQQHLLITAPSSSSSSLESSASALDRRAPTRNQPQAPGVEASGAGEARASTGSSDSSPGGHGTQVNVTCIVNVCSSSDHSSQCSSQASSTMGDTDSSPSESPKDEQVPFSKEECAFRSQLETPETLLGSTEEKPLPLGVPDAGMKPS
Protocol: (§2) Purified human-mouse monoclonal antibodies against TNFR2 were co-cultured with TNFR2 positive Jurkat cells (Jurkat cells were transfected with pcDNA3.4-TNFR2 plasmid using conventional methods, and after screening, stable and highly expressed TNFR2 Jurkat cell lines were obtained) and stained. The antibody binding intensity was analyzed by flow cytometry. The specific steps are as follows: Jurkat-TNFR2 was counted, centrifuged, resuspended, then added to a 96-deep well plate, and the supernatant was discarded. The anti-TNFR2 antibody was gradient diluted, and added to the 96-deep well plate, After incubation and wash, the secondary antibody FITC-anti-human IgG (Abcam: 6854) was added, and the samples were detected using Beckman CytoFLEX.

[4] = biological target: T2, human TNFR2 on the cell membrane; assay: flow cytometry on human PBMC, CD3+ T cells
Protocol: Purified anti-human TNFR2 human-mouse chimeric monoclonal antibodies were co-cultured with PBMC cells (Oricells) and stained. The binding of the antibody was analyzed by flow cytometry. The specific steps are as follows: PBMC cells (Oricells) were counted, centrifuged, resuspended, then added to a 96-deep well plate, and the supernatant was discarded. Diluted anti-TNFR2 monoclonal antibodies were added.

[5] = biological target: T1, TNFR2-His (Sino Biological, 10417-H08H, …); assay: BLI, antibody captured on AHC probe, TNFR2 in solution
Protocol: The GATOR (ProbeLife) detection instrument and AHC (Pall, 185064), Human antibody Capture probe were used to detect the dissociation constant (Kd) of human-mouse chimeric TNFR2 monoclonal antibody.
The human-mouse chimeric TNFR2 monoclonal antibodies were diluted to 50 nM in binding buffer (Q buffer [PBS (10 mM PH7.4)+0.02% Tween 20+0.2% BSA). The recombinant human TNFR2 protein was diluted in Q buffer with a 2-fold gradient starting from the highest concentration of 100 nM. The kinetic association assay was conducted by placing the antibody capture sensor in the continuously diluted antigen solutions mentioned above. The Octet Data Acquisition software was pened and the New Kinetics Experiment-Basic Kinetics mode was selected.

[6] = biological target: T1, TNFR2-His (Sino Biological, 10417-H08H, …); assay: competition ELISA, coated TNFR2-His, biotin-labeled TNFα fusion protein at fixed concentration
Protocol: (§3) The ELISA plate was coated with TNFR2-His antigen (Sino Biological, 10417-H08H, Assessment #NP_001057.1. Met1-Asp257, with multi-histidine tags expressed on C-terminus) and blocked, added with the gradient diluted TNFR2 monoclonal antibodies and biotin-labeled TNFα fusion protein of fixed concentration for incubation, then added with the secondary antibody Ap-Strepavidin (Herobio, 510401) for incubation. After development, the detection was performed using microplate reader.

[7] = biological target: T1, TNFR2-His (Sino Biological, 10417-H08H, …); assay: competition ELISA on coated TNFR2-His against biotin-labeled TNFα fusion protein at fixed concentration
Protocol: as §3

[8] = biological target: T2, human TNFR2 on the cell membrane; assay: flow cytometry, Jurkat-TNFR2 cells
Protocol: as §2

WT = biological target: T3, WT; assay: flow cytometry on ConA-stimulated spleen cells of WT mice, mCD3+ T cells
T3 construct: also called T cells of wild-type (WT) mice; mouse TNFR2 on the cell membrane
T3 chain: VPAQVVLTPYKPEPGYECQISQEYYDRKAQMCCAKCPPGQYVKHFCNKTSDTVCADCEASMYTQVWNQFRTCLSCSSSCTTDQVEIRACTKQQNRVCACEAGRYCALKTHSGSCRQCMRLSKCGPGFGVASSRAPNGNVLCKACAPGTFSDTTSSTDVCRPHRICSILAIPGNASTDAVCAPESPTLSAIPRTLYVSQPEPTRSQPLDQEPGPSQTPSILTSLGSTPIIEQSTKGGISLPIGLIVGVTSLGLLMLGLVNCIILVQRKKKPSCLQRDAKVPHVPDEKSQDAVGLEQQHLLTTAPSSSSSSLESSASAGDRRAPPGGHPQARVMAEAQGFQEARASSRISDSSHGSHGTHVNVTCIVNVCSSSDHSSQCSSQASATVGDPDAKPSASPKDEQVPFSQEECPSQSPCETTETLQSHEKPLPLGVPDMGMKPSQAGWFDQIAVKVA
Protocol: (§4) The cells were stained again with Cy-3 anti-human IgG and FITC anti-mCD3 (BD, 555274) after washing, under the same incubation conditions. After washing, the detection was performed.

[9] = biological target: T2, human TNFR2 on the cell membrane; assay: competition flow cytometry, TNFR2 positive cells, TNFα fusion protein at fixed concentration
Protocol: Purified anti-human TNFR2 human-mouse monoclonal antibodies were co-cultured with TNFR2 positive cells and stained. The antibody binding intensity was analyzed by flow cytometry. The specific steps are as follows: cells were counted, centrifugated, resuspended, then added to a 96-deep well plate, and the supernatant was discarded. Gradient diluted anti-TNFR2 antibodies and TNFα fusion protein of fixed concentration were added. After incubation and wash, the secondary antibody PE-streptavidin (Biogen, 405203) was added for incubation, and the samples were detected using Beckman CytoFLEX.

[10] = biological target: T2, human TNFR2 on the cell membrane; assay: flow cytometry on ConA-stimulated spleen cells of hTNFR2-KI mice, mCD3+ T cells
Protocol: as §4

[11] = biological target: T2, human TNFR2 on the cell membrane; assay: flow cytometry, CHO-TNFR2 cells
Procedure, shortened: (§5)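 EC50 values come from flow cytometry of serially diluted antibodies binding CHO cells that stably overexpress human TNFR2. After incubation in 96-deep-well plates, the cells were washed, stained with a fluorescent anti-IgG secondary antibody and read on a Beckman CytoFLEX.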

[12] = biological target: T2, human TNFR2 on the cell membrane; assay: flow cytometry on CHO-TNFR2 cells
Procedure, shortened: as §5

[13] = biological target: T1, TNFR2-His (Sino Biological, 10417-H08H, …); assay: ELISA, plate coated with TNFR2-His; remark: listed apart in the source
Procedure, shortened: as §1

[14] = biological target: T1, TNFR2-His (Sino Biological, 10417-H08H, …); assay: BLI, antibody captured on AHC probe, TNFR2-His in solution
Procedure, shortened: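 Kon, koff and Kd values come from kinetic association measurements made by bio-layer interferometry (Octet, Basic Kinetics mode). Antibody-capture sensors carrying antibodies at 50 nM in Q buffer (10 mM PBS pH 7.4, 0.02% Tween 20, 0.2% BSA) were placed in recombinant human TNFR2, diluted 2-fold in the same buffer from a top concentration of 100 nM.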

Binder	EC50 [1] [nM]	EC50 [2] [µg/mL]	EC50 [3] [µg/mL]	percent of cells in the upper right quadrant (Q1-UR, CD3+ and anti-human IgG Fc+) [4] [%]	Kd [5] [nM]	koff [5] [s⁻¹]	kon [5] [M⁻¹ s⁻¹]	IC50 [6] [µg/mL]	IC50 [7]	EC50 [8] [µg/mL]	binding result (WT)	percent of cells in the upper right quadrant (Q2-UR, mCD3+ and anti-hIgG+) (WT) [%]	IC50 [9] [µg/mL]	percent of cells in the upper right quadrant (Q2-UR, mCD3+ and anti-hIgG+) [10] [%]	EC50 [11] [nM]	EC50 [12] [µg/mL]	EC50 [13]	Kd [14] [nM]	koff [14] [s⁻¹]	kon [14] [M⁻¹ s⁻¹]
human-mouse chimeric TNFR2 monoclonal antibody 29A1-hFc (antibody, V domains shown, Mouse V regions of clone 29A1 with human constant regions) VH: QVQLQQSGAEVVRPGASVTLSCKASGYTFSDYEMHWVKQTPVHGLEWIGAIDPETGDTAYNQKFKDKARVTADKSSSTAYMELRSLTSEDSAVYYCTRDIHYYGSSLSYFDYWGQGTTLTVSS VL: DIVMTQSQKFMSTSVGDRVSVTCKASQNVGTNVAWYQQKPGQSPKVMIYSASYRYSGAPDRFTGSGSGTDFTLTVNNVQSEDLAEYFCQQYKTYPYTFGGGTKLEIE	0.248	0.037	14.2	13.6	16.3	0.00469	289000	0.642	0.648 µg/mL and 4.34 nM											
human-mouse chimeric TNFR2 monoclonal antibody 16D2-hFc (antibody, V domains shown, Mouse V regions of clone 16D2 with human constant regions) VH: EVQLQQSEPELVKPGASVKIPCKASGYTFTDYNMDWVKQSHGKSLEWIGDINPNNGVTIYNQKFKGKATLTVDKSSSTAYMELRSLTSEDTAVYYCVILEYFDYWGQGTTLTVSS VL: DIVMTQSTSSMSVSLGDTVSITCHASQGISSNIGWLQQKPGKSFKGLIYHGTKLEDGVPSRFSGSGSGADYSLTISSLESEDFADYYCVQYAQFPRTFGGGTKLEIK				9.66																
human-mouse chimeric TNFR2 monoclonal antibody 7F2-hFc (antibody, V domains shown, Mouse V regions of clone 7F2 with human constant regions) VH: QVTLKESGPGILQPSQTLSLTCSFSGFSLNTFGLGVGWIRQPSGKGLEWLTHIWWNDDKYYNPALKSRLTISRDTSENLVFLKIANVDTADTATYYCARIEGLRRFDYWGQGTTLTVSS VL: DIQMTQSPSSLSASLGGKVTITCKTSQDINKFIAWYQHKPGKGPRLLIHYTSTLQPGIPSRFSGSGSGRDYSFSISDLEPEDIATYYCLQYANLWAFGGGTKLEIK	0.319	0.0476	0.0243		25.3	0.00639	253000	0.225	0.229 µg/mL and 1.53 nM	0.024	no binding	0.9	0.417	45						
human-mouse chimeric TNFR2 monoclonal antibody 33C12-hFc (antibody, V domains shown, Mouse V regions of clone 33C12 with human constant regions; also called human-mouse chimeric 33C12 antibody) VH: DVKLVESGGGLVKPGGSLKLSCAASGFTFSDYTMSWVRQTPEKRLEWVATISTGGSYTYYPDSVKGRFTISRDNAKNTLYLQMSSLKSEDTAMYYCTRDGGYDGDYFDYWGQGTTLTVSS VL: ENVLTQSPAIMSASPGEKVTMTCRASSSVSSSYLHWYQQKSGASPKLWIYRTSNLASGVPARFSGSGSGTSYSLTISSVEAEDAATYYCQQYSGYPLTFGAGTRLELK	0.318	0.0475	0.658		21.9	0.00286	131000			0.66	no binding	1.02		43.6	0.951	0.142	0.0782 µg/mL and 0.524 nM	17.3	0.00156	90500
